From patent publication US20200087364A1 (IMMATICS BIOTECHNOLOGIES, published 2020) come the findings set out here.

Where only a bound is given, the exact number is not on record here.

The test has as its target T1, HLA-A*01:01 (human).
T1 construct: MHC class I monomer first loaded with a UV-sensitive peptide (not identified) that is cleaved by UV irradiation and exchanged for the tested peptide; captured on streptavidin plates, detected with anti-β2m; also called peptide-receptive MHC molecules
Description: UV-ligand exchange, anti-b2m ELISA. In short, it runs like this:
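Peptide–MHC complexes made by UV-ligand exchange of a UV-cleavable peptide; exchange yield measured by ELISA on streptavidin-coated plates, samples diluted 100-fold, 1 h 37 °C. Detection with 2 ug/ml HRP anti-β2m, TMB, A450; refolded HLA-A*02:01/MLA-001 monomer standards 15-500 ng/ml.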
For the molecule VDPASNTY, the peptide exchange yield was 20 to 50%.
Next, QSLPEFGLTYY: 20 to 50%; KEVDPAGHSYI: 20 to 50%; YEDHFPLLF: 20 to 50%.
Take ELCPLPGTSAY: the peptide exchange yield lay in the range of 20 to 50%.
Next, EVYDGREHSAY: 20 to 50%; SSDFDPLVY: more than 75%.
As for QLDSTLDSY, the peptide exchange yield was in the range of 50 to 75%.
MTEKFLFLY yielded a peptide exchange yield of more than 75%.
The value for STIRGELFF was 20 to 50%.
DTEFHGGLHY: the peptide exchange yield was 50 to 75%.
The value for SSDIVALGGFLY was 50 to 75%; that for SSDPKAVMF was 20 to 50%; that for QSLPEFGLTY was 20 to 50%.
Next, YTELVEEKY: 50 to 75%; LTDSTTRTTY: 50 to 75%; AADSNPSEL: 20 to 50%.
Next, HLKILSPIY: 50 to 75%; STDSASYY: more than 75%; FTDSQGNDIK: 50 to 75%.
For SITDVDFIY, the peptide exchange yield was 20 to 50%.
For the molecule ASDLEPRELLSY, the peptide exchange yield lay within 50 to 75%.
Next, TSEISQNALMYY: 50 to 75%.
Next, NFSDLVFTY: 20 to 50%.
For FTSDTGLEY, the peptide exchange yield is more than 75%.
The value for QTDVERIKDTY was 50 to 75%; that for FTDYELKAY was more than 75%; that for VTDSTTKIAY was 50 to 75%.
Next, YSDLHTPGRY: 50 to 75%; TTSSAISWILY: 50 to 75%.
With TSRAANIPGY, the peptide exchange yield was in the range of 10 to 20%.
The value for SSDNYEHWLY was more than 75%; that for ARDPITFSF was 20 to 50%.
On to TTDDTTAMASAS, for which the peptide exchange yield was in the range of 20 to 50%.
The value for TSEISQNALMY was more than 75%.
Next, NVDQNQNSY: 50 to 75%; LTEKSHIRY: 50 to 75%; ASDDVRIEVGLY: more than 75%.
Next, QLDSAVKNLY: 50 to 75%.
EMEQQSQEY yielded a peptide exchange yield of more than 75%.
Next, VSELVTTGHY: 50 to 75%; KPSAVKDSIY: 20 to 50%.
The molecule FPAPPAHWFY came in with a peptide exchange yield of 20 to 50%.
ESEMIKFASYY gave a peptide exchange yield of more than 75%.
The value for AFDDIATYF was 20 to 50%.
